{"source": "patent US20150344540A1", "about": "“NOVEL GLP-1 RECEPTOR AGONISTS WITH CHOLESTEROL EFFLUX ACTIVITY” (NOVO NORDISK A/S, priority 2012, published 2015)", "note": "Where no end group is shown, it is not given here. [ ]: non-standard residue; d: D form. Aib = CC(C)(N)C(=O)O"}
{"target": "human GLP-1 receptor (human, UniProt P43220)", "assay": "cell-based or functional assay", "units": {"CRE luciferase EC50, 0% HSA": "pM", "CRE luciferase EC50, 1% HSA": "pM"}}
{"binder": "H[Aib]EGTFTSDVSSYLEGEAVKEFIAWLVEK[Aib]KEF-NH2 (N-terminus assumed; SMILES CC[C@H](C)[C@H](NC(=O)[C@H](Cc1ccccc1)NC(=O)[C@H](CCC(=O)O)NC(=O)[C@H](CCCCN)NC(=O)[C@@H](NC(=O)[C@H](C)NC(=O)[C@H](CCC(=O)O)NC(=O)CNC(=O)[C@H](CCC(=O)O)NC(=O)[C@H](CC(C)C)NC(=O)[C@H](Cc1ccc(O)cc1)NC(=O)[C@H](CO)NC(=O)[C@H](CO)NC(=O)[C@@H](NC(=O)[C@H](CC(=O)O)NC(=O)[C@H](CO)NC(=O)[C@@H](NC(=O)[C@H](Cc1ccccc1)NC(=O)[C@@H](NC(=O)CNC(=O)[C@H](CCC(=O)O)NC(=O)C(C)(C)NC(=O)[C@@H](N)Cc1c[nH]cn1)[C@@H](C)O)[C@@H](C)O)C(C)C)C(C)C)C(=O)N[C@@H](C)C(=O)N[C@@H](Cc1c[nH]c2ccccc12)C(=O)N[C@@H](CC(C)C)C(=O)N[C@H](C(=O)N[C@@H](CCC(=O)O)C(=O)N[C@@H](CCCCN)C(=O)NC(C)(C)C(=O)N[C@@H](CCCCN)C(=O)N[C@@H](CCC(=O)O)C(=O)N[C@@H](Cc1ccccc1)C(N)=O)C(C)C)", "note": "[[Aib8,Glu23,Val25,Glu34,Lys35,Aib36,Lys37]-GLP-1-(7-37)-peptidyl-Glu-Phe amide]", "CRE luciferase EC50, 0% HSA": 22, "CRE luciferase EC50, 1% HSA": 15}
{"binder": "H[Aib]EGTFTSDVSSYLEGEKVKEFIEHLVEK[Aib]KEFL-NH2 (N-terminus assumed; SMILES CC[C@H](C)[C@H](NC(=O)[C@H](Cc1ccccc1)NC(=O)[C@H](CCC(=O)O)NC(=O)[C@H](CCCCN)NC(=O)[C@@H](NC(=O)[C@H](CCCCN)NC(=O)[C@H](CCC(=O)O)NC(=O)CNC(=O)[C@H](CCC(=O)O)NC(=O)[C@H](CC(C)C)NC(=O)[C@H](Cc1ccc(O)cc1)NC(=O)[C@H](CO)NC(=O)[C@H](CO)NC(=O)[C@@H](NC(=O)[C@H](CC(=O)O)NC(=O)[C@H](CO)NC(=O)[C@@H](NC(=O)[C@H](Cc1ccccc1)NC(=O)[C@@H](NC(=O)CNC(=O)[C@H](CCC(=O)O)NC(=O)C(C)(C)NC(=O)[C@@H](N)Cc1c[nH]cn1)[C@@H](C)O)[C@@H](C)O)C(C)C)C(C)C)C(=O)N[C@@H](CCC(=O)O)C(=O)N[C@@H](Cc1c[nH]cn1)C(=O)N[C@@H](CC(C)C)C(=O)N[C@H](C(=O)N[C@@H](CCC(=O)O)C(=O)N[C@@H](CCCCN)C(=O)NC(C)(C)C(=O)N[C@@H](CCCCN)C(=O)N[C@@H](CCC(=O)O)C(=O)N[C@@H](Cc1ccccc1)C(=O)N[C@@H](CC(C)C)C(N)=O)C(C)C)", "note": "[[Aib8,Glu23,Lys24,Val25,Glu30,His31,Glu34,Lys35,Aib36,Lys37]-GLP-1-(7-37)-peptidyl-Glu-Phe-Leu amide]", "CRE luciferase EC50, 0% HSA": 1840, "CRE luciferase EC50, 1% HSA": 593}
{"binder": "HAQGTFTSDYSKYLDSKAAREFVQWLLEKVKEFL-NH2", "note": "[[Ala2,Lys17,Ala18,Arg20,Glu21,Leu27,Glu28,Lys29]-Glucagonyl-(1-29)-Val-Lys-Glu-Phe-Leu amide]", "CRE luciferase EC50, 0% HSA": 971, "CRE luciferase EC50, 1% HSA": 231}
{"binder": "H[Aib]EGTFTSDVSSYLEGEAVKEFIAWLVEK[Aib]KE-NH2 (N-terminus assumed; SMILES CC[C@H](C)[C@H](NC(=O)[C@H](Cc1ccccc1)NC(=O)[C@H](CCC(=O)O)NC(=O)[C@H](CCCCN)NC(=O)[C@@H](NC(=O)[C@H](C)NC(=O)[C@H](CCC(=O)O)NC(=O)CNC(=O)[C@H](CCC(=O)O)NC(=O)[C@H](CC(C)C)NC(=O)[C@H](Cc1ccc(O)cc1)NC(=O)[C@H](CO)NC(=O)[C@H](CO)NC(=O)[C@@H](NC(=O)[C@H](CC(=O)O)NC(=O)[C@H](CO)NC(=O)[C@@H](NC(=O)[C@H](Cc1ccccc1)NC(=O)[C@@H](NC(=O)CNC(=O)[C@H](CCC(=O)O)NC(=O)C(C)(C)NC(=O)[C@@H](N)Cc1c[nH]cn1)[C@@H](C)O)[C@@H](C)O)C(C)C)C(C)C)C(=O)N[C@@H](C)C(=O)N[C@@H](Cc1c[nH]c2ccccc12)C(=O)N[C@@H](CC(C)C)C(=O)N[C@H](C(=O)N[C@@H](CCC(=O)O)C(=O)N[C@@H](CCCCN)C(=O)NC(C)(C)C(=O)N[C@@H](CCCCN)C(=O)N[C@@H](CCC(=O)O)C(N)=O)C(C)C)", "note": "[[Aib8,Glu23,Val25,Glu34,Lys35,Aib36,Lys37]-GLP-1-(7-37)-peptidyl-Glu amide]", "CRE luciferase EC50, 0% HSA": 14, "CRE luciferase EC50, 1% HSA": 5}
{"binder": "HAEGTFTSDLSKQMEEEAVREFIEWLKNKVLEFL-NH2", "note": "[[Ala2,Glu21,Lys29,Val30,Leu31,Glu32,Phe33,Leu34]-Exendin-4-(1-34)-peptide amide]", "CRE luciferase EC50, 0% HSA": 31, "CRE luciferase EC50, 1% HSA": 20}
{"binder": "H[Aib]EGTFTSDVSSYLEGEKVKEFIAWLVEK[Aib]KEFL-NH2 (N-terminus assumed; SMILES CC[C@H](C)[C@H](NC(=O)[C@H](Cc1ccccc1)NC(=O)[C@H](CCC(=O)O)NC(=O)[C@H](CCCCN)NC(=O)[C@@H](NC(=O)[C@H](CCCCN)NC(=O)[C@H](CCC(=O)O)NC(=O)CNC(=O)[C@H](CCC(=O)O)NC(=O)[C@H](CC(C)C)NC(=O)[C@H](Cc1ccc(O)cc1)NC(=O)[C@H](CO)NC(=O)[C@H](CO)NC(=O)[C@@H](NC(=O)[C@H](CC(=O)O)NC(=O)[C@H](CO)NC(=O)[C@@H](NC(=O)[C@H](Cc1ccccc1)NC(=O)[C@@H](NC(=O)CNC(=O)[C@H](CCC(=O)O)NC(=O)C(C)(C)NC(=O)[C@@H](N)Cc1c[nH]cn1)[C@@H](C)O)[C@@H](C)O)C(C)C)C(C)C)C(=O)N[C@@H](C)C(=O)N[C@@H](Cc1c[nH]c2ccccc12)C(=O)N[C@@H](CC(C)C)C(=O)N[C@H](C(=O)N[C@@H](CCC(=O)O)C(=O)N[C@@H](CCCCN)C(=O)NC(C)(C)C(=O)N[C@@H](CCCCN)C(=O)N[C@@H](CCC(=O)O)C(=O)N[C@@H](Cc1ccccc1)C(=O)N[C@@H](CC(C)C)C(N)=O)C(C)C)", "note": "[[Aib8,Glu23,Lys24,Val25,Glu34,Lys35,Aib36,Lys37]-GLP-1-(7-37)-peptidyl-Glu-Phe-Leu amide]", "CRE luciferase EC50, 0% HSA": 487, "CRE luciferase EC50, 1% HSA": 174}
{"binder": "H[Aib]EGTFTSDVSSYLEGQAVKQFIAWLVEK[Aib]AEFL-NH2 (N-terminus assumed; SMILES CC[C@H](C)[C@H](NC(=O)[C@H](Cc1ccccc1)NC(=O)[C@H](CCC(N)=O)NC(=O)[C@H](CCCCN)NC(=O)[C@@H](NC(=O)[C@H](C)NC(=O)[C@H](CCC(N)=O)NC(=O)CNC(=O)[C@H](CCC(=O)O)NC(=O)[C@H](CC(C)C)NC(=O)[C@H](Cc1ccc(O)cc1)NC(=O)[C@H](CO)NC(=O)[C@H](CO)NC(=O)[C@@H](NC(=O)[C@H](CC(=O)O)NC(=O)[C@H](CO)NC(=O)[C@@H](NC(=O)[C@H](Cc1ccccc1)NC(=O)[C@@H](NC(=O)CNC(=O)[C@H](CCC(=O)O)NC(=O)C(C)(C)NC(=O)[C@@H](N)Cc1c[nH]cn1)[C@@H](C)O)[C@@H](C)O)C(C)C)C(C)C)C(=O)N[C@@H](C)C(=O)N[C@@H](Cc1c[nH]c2ccccc12)C(=O)N[C@@H](CC(C)C)C(=O)N[C@H](C(=O)N[C@@H](CCC(=O)O)C(=O)N[C@@H](CCCCN)C(=O)NC(C)(C)C(=O)N[C@@H](C)C(=O)N[C@@H](CCC(=O)O)C(=O)N[C@@H](Cc1ccccc1)C(=O)N[C@@H](CC(C)C)C(N)=O)C(C)C)", "note": "[[Aib8,Val25,Gln27,Glu34,Lys35,Aib36,Ala37]-GLP-1-(7-37)-peptidyl-Glu-Phe-Leu amide]", "CRE luciferase EC50, 0% HSA": 191, "CRE luciferase EC50, 1% HSA": 69}
{"binder": "H[Aib]EGTFTSDVSSYLEGEKVKEFIAWLVEG[Aib]KEFL-NH2 (N-terminus assumed; SMILES CC[C@H](C)[C@H](NC(=O)[C@H](Cc1ccccc1)NC(=O)[C@H](CCC(=O)O)NC(=O)[C@H](CCCCN)NC(=O)[C@@H](NC(=O)[C@H](CCCCN)NC(=O)[C@H](CCC(=O)O)NC(=O)CNC(=O)[C@H](CCC(=O)O)NC(=O)[C@H](CC(C)C)NC(=O)[C@H](Cc1ccc(O)cc1)NC(=O)[C@H](CO)NC(=O)[C@H](CO)NC(=O)[C@@H](NC(=O)[C@H](CC(=O)O)NC(=O)[C@H](CO)NC(=O)[C@@H](NC(=O)[C@H](Cc1ccccc1)NC(=O)[C@@H](NC(=O)CNC(=O)[C@H](CCC(=O)O)NC(=O)C(C)(C)NC(=O)[C@@H](N)Cc1c[nH]cn1)[C@@H](C)O)[C@@H](C)O)C(C)C)C(C)C)C(=O)N[C@@H](C)C(=O)N[C@@H](Cc1c[nH]c2ccccc12)C(=O)N[C@@H](CC(C)C)C(=O)N[C@H](C(=O)N[C@@H](CCC(=O)O)C(=O)NCC(=O)NC(C)(C)C(=O)N[C@@H](CCCCN)C(=O)N[C@@H](CCC(=O)O)C(=O)N[C@@H](Cc1ccccc1)C(=O)N[C@@H](CC(C)C)C(N)=O)C(C)C)", "note": "[[Aib8,Glu23,Lys24,Val25,Glu34,Aib36,Lys37]-GLP-1-(7-37)-peptidyl-Glu-Phe-Leu amide]", "CRE luciferase EC50, 0% HSA": 461, "CRE luciferase EC50, 1% HSA": 111}
{"binder": "HAEGTFTSDVSSYLEGEAVKEFIAWLVEKVKEFL-NH2", "note": "[[Glu23,Val25,Glu34,Lys35,Val36,Lys37]-GLP-1-(7-37)-peptidyl-Glu-Phe-Leu amide]", "CRE luciferase EC50, 0% HSA": 440, "CRE luciferase EC50, 1% HSA": 171}
{"binder": "H[Aib]EGTFTSDVSSYLEGEAVKEFVQWLVEK[Aib]KEFL-NH2 (N-terminus assumed; SMILES CC(C)C[C@H](NC(=O)[C@H](Cc1ccccc1)NC(=O)[C@H](CCC(=O)O)NC(=O)[C@H](CCCCN)NC(=O)C(C)(C)NC(=O)[C@H](CCCCN)NC(=O)[C@H](CCC(=O)O)NC(=O)[C@@H](NC(=O)[C@H](CC(C)C)NC(=O)[C@H](Cc1c[nH]c2ccccc12)NC(=O)[C@H](CCC(N)=O)NC(=O)[C@@H](NC(=O)[C@H](Cc1ccccc1)NC(=O)[C@H](CCC(=O)O)NC(=O)[C@H](CCCCN)NC(=O)[C@@H](NC(=O)[C@H](C)NC(=O)[C@H](CCC(=O)O)NC(=O)CNC(=O)[C@H](CCC(=O)O)NC(=O)[C@H](CC(C)C)NC(=O)[C@H](Cc1ccc(O)cc1)NC(=O)[C@H](CO)NC(=O)[C@H](CO)NC(=O)[C@@H](NC(=O)[C@H](CC(=O)O)NC(=O)[C@H](CO)NC(=O)[C@@H](NC(=O)[C@H](Cc1ccccc1)NC(=O)[C@@H](NC(=O)CNC(=O)[C@H](CCC(=O)O)NC(=O)C(C)(C)NC(=O)[C@@H](N)Cc1c[nH]cn1)[C@@H](C)O)[C@@H](C)O)C(C)C)C(C)C)C(C)C)C(C)C)C(N)=O)", "note": "[[Aib8,Glu23,Val25,Val29,Gln30,Glu34,Lys35,Aib36,Lys37]-GLP-1-(7-37)-peptidyl-Glu-Phe-Leu amide]", "CRE luciferase EC50, 0% HSA": 126, "CRE luciferase EC50, 1% HSA": 37}
